Assay results from patent US20170369935.

Test system: T1, peptide LPETGGG bridging variable regions 4 and 5 (var 4-LPETGGG-var 5)
T1 sequence: LPETGGG

sortase (Chen et. al, 2011)
kligation (sortase-catalyzed transpeptidation, loop opening on gel, room temperature): kligation=11±1.3 min
